Source: paper PMC8799719 (2022)
Read-outs that look alike come from different tables or passages of the source.

Columns and labels:
[1] = molecular target: T1, triple-helical peptide (THP) [(POG)10]3 (synthetic construct, O of each POG triplet, as printed in (POG)10); assay: ITC
[2] = molecular target: T1, triple-helical peptide (THP) [(POG)10]3; assay: ITC; remark: listed apart in the source

Row | Binder | Kd [1] [µM] | Kd [2] [µM]
1 | ColG-activator domain (domain or fragment) YDFEYLNGLSYTELTNLIKNIKWNQINGLFNYSTGSQKFFGDKNRVQAIINALQESGRTYTANDMKGIETFTEVLRAGFYLGYYNDGLSYLNDRNFQDKCIPAMIAIQKNPNFKLGTAVQDEVITSLGKLIGNASANAEVVNNCVPVLKQFRENLNQYAPDYVKGTAVNELIKGIEFDFSGAAYEKDVKTMPWYGKIDPFINELKALGLYGNITSATEWASDVGIYYLSKFGLYSTNRNDIVQSLEKAVDMYKYGKIAFVAMERITWDYD | 3.28 | –
2 | recombinant activator domain of VhaC (domain or fragment) SAEQAANVCDVEAFTSNSSNDVLNAIKTQGASCVNALFSAESRIQEAAFESGHMYNIAKHTTDLAKAYAGGGSDELEALFLYLRAGYYAEFYNSKVSFLSWVTPAVKEAVDAFVNNANFYENSDPHGKVLSEVIITMDSAGLQHAYLPQVTQWLTRWDSQYAQNWYMRNAVNGVFTILFGGQWNEQFVQTIGNQTELAKALGDFALRSSAIGASDEFMAANAGRELGRLTKYSGSASSTVKSKLTEIFAQYEMYGRGDAIWLGAADTVSYYADCSDY | – | 82.8
